Holding throughout (test): purified protein
Holding throughout (format): biochemical, Sakaguchia sp.

Substrate in data set [1]: CCCCCCCCCCCCCC(=O)Oc1ccc([N+](=O)[O-])cc1
Substrate in data set [2]: CCCCCCCCCCCC(=O)Oc1ccc([N+](=O)[O-])cc1
Substrate in data set [3]: CCCC(=O)Oc1ccc([N+](=O)[O-])cc1
Substrate in data set [4]: CCCCCC(=O)Oc1ccc([N+](=O)[O-])cc1
Substrate in data set [5]: CCCCCCCCCC(=O)Oc1ccc([N+](=O)[O-])cc1
Substrate in data set [6]: CCCCCCCC(=O)Oc1ccc([N+](=O)[O-])cc1
Substrate in data set [7]: CC(=O)Oc1ccc([N+](=O)[O-])cc1
Substrate in data set [8]: CCCCCCCCCCCCCCCC(=O)Oc1ccc([N+](=O)[O-])cc1
[9] abbreviates: 50 mM Tris-HCl pH 7.5, optimal temperature (35 °C).
[10] abbreviates: 50 mM Tris-HCl pH 7.5, optimal temperature (45 °C).

The record followed here is paper PMC12042792, “Discovery of two novel cutinases from a gut yeast of plastic-eating mealworm for polyester depolymerization” (Applied and Environmental Microbiology, 2025).

B1: SiCut1 (Sakaguchia sp.) (protein)
chain: AAIAERQSSACAPLELYHAAGTSESGLGTVGRAFQTALPREVQGATVSPLNYNTNAEYSSTVTAGAQTFQQLLTSRAAACPNTKFVLSGYSKGALVVHKVTLPSAVQSKVVAITVFGDPQAGQFGATTVPINNKACFFSFCNRGDTFCDRGGNFAAHLAYATDGSVTTASRNIAGCYRA
notes: no tag mentioned; diafiltered culture supernatant
A word on the Km: it is the concentration of substrate that gives half-maximal velocity. In general, kcat refers to the maximal rate divided by the concentration of active sites. The term kcat/Km denotes the turnover number divided by the Michaelis constant. In the case of B1, the Michaelis-Menten constant (Km) worked out at 3.46 ± 0.02 µM in data set [1] (setting [9]); 3.21 ± 0.63 µM in data set [2] (setting [9]); 1.73 ± 0.99 µM in data set [3] (setting [9]); 0.66 ± 2.77 µM in data set [4] (setting [9]); 7.57 ± 0.01 µM in data set [5] (setting [9]); 2.01 ± 0.63 µM in data set [6] (setting [9]). Further, the results for the Km in data set [7] (setting [9]) and in data set [8] (setting [9]) were 9.12 ± 0.04 µM and 7.09 ± 0.27 µM, respectively. Besides, the kcat came out at 0.213 ± 0.00217 s⁻¹ in data set [1] (setting [9]); 0.7233 ± 0.00283 s⁻¹ in data set [2] (setting [9]); 0.796 ± 0.00367 s⁻¹ in data set [3] (setting [9]); 0.8588 ± 0.00717 s⁻¹ in data set [4] (setting [9]); 0.672 ± 0.026 s⁻¹ in data set [5] (setting [9]); 1.002 ± 0.00267 s⁻¹ in data set [6] (setting [9]). Further, the kcat in data set [7] (setting [9]) was 0.3212 ± 0.00267 s⁻¹; in data set [8] (setting [9]), 0.2155 ± 0.002 s⁻¹. In addition, the kcat/Km in data set [1] (setting [9]) turned out to be 61700 ± 1330 M⁻¹ s⁻¹; in data set [2] (setting [9]) it was 225000 ± 500 M⁻¹ s⁻¹; in data set [3] (setting [9]), 459800 ± 2330 M⁻¹ s⁻¹; in data set [4] (setting [9]) it was 1.305e+06 ± 1830 M⁻¹ s⁻¹; in data set [5] (setting [9]), 88800 ± 3170 M⁻¹ s⁻¹; in data set [6] (setting [9]), 501000 ± 1500 M⁻¹ s⁻¹. Moreover, the specificity constant (kcat/Km) was 35200 ± 3000 M⁻¹ s⁻¹ in data set [7] (setting [9]) and 30300 ± 2170 M⁻¹ s⁻¹ in data set [8] (setting [9]).

B2: SiCut2 (Sakaguchia sp.) (protein)
chain: TAIGERQLGCAPLELFHAAGTSEVGQGIIGRAYQSALPRAVSGATVTPVIYSTIAEYFTTVRAGAQTMQRQLTSRAAACPNTKFVLSGYSKGALVVHEVKLPAAIQSKVVAVTLFGDPKNGQFGSSVVPINNKACFFSFCNRGDVFCDRGISLAAHLAYATDGSVTTAARNIAECFNA
notes: as for B1
For the protein B2, the Km in data set [1] (setting [10]) came to 4.44 ± 0.5 µM; in data set [2] (setting [10]), 2.22 ± 1.9 µM; in data set [3] (setting [10]), 2.82 ± 0.58 µM; in data set [4] (setting [10]) it was 1.44 ± 1.51 µM; in data set [5] (setting [10]), 2.47 ± 0.09 µM; in data set [6] (setting [10]), 0.89 ± 0.12 µM. The Km worked out at 6.18 ± 0.49 µM in data set [7] (setting [10]) and 4.01 ± 1.3 µM in data set [8] (setting [10]). Also, the kcat in data set [1] (setting [10]) turned out to be 0.832 ± 0.0117 s⁻¹; in data set [2] (setting [10]), 0.983 ± 0.035 s⁻¹; in data set [3] (setting [10]), 1.13 ± 0.066 s⁻¹; in data set [4] (setting [10]) it was 1.26 ± 0.0175 s⁻¹; in data set [5] (setting [10]), 1.48 ± 0.0342 s⁻¹; in data set [6] (setting [10]) it was 2.079 ± 0.0025 s⁻¹. The kcat in data set [7] (setting [10]) was 0.665 ± 0.07 s⁻¹; in data set [8] (setting [10]), 0.603 ± 0.0417 s⁻¹. Moreover, the kcat/Km in data set [1] (setting [10]) was 187000 ± 10000 M⁻¹ s⁻¹; in data set [2] (setting [10]) it was 443000 ± 4330 M⁻¹ s⁻¹; in data set [3] (setting [10]) it was 401000 ± 5000 M⁻¹ s⁻¹; in data set [4] (setting [10]) it was 875000 ± 11700 M⁻¹ s⁻¹; in data set [5] (setting [10]) it was 600700 ± 667 M⁻¹ s⁻¹; in data set [6] (setting [10]), 2.344e+06 ± 13800 M⁻¹ s⁻¹. In addition, the kcat/Km amounted to 108000 ± 11300 M⁻¹ s⁻¹ in data set [7] (setting [10]) and 150000 ± 3830 M⁻¹ s⁻¹ in data set [8] (setting [10]).
